From patent US20240261333A1 (published 2024)

Experiments:
Assay in all cases: co-IP with anti-FLAG, mass spectrometry; lysate of cells with N-FLAG B3GNT2
[1] = molecular target: T1, SDF4 (human, UniProt Q9BRK5 37-362)
T1 construct: also called NP_057260.2 (+2)
T1 sequence (looked up): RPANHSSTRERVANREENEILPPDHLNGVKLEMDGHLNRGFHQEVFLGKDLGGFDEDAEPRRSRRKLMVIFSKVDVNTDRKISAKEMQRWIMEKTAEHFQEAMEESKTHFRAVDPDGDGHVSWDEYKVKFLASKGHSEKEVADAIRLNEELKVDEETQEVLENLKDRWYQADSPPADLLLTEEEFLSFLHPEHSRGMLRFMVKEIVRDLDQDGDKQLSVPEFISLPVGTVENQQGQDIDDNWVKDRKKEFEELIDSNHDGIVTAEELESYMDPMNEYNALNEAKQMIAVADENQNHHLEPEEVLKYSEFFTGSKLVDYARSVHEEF
Protocol: (§1) Cells were plated in 10-cm cell culture dishes and grown to 60-80% confluency. For each condition, two biological replicates were harvested for co-IP. Cells were washed with PBS and 4 mL of lysis buffer (20 mM HEPES, 1% Triton X-100, 150 mM NaCl, 1 mM EDTA, and 10% glycerol) containing protease inhibitor cocktail was added. Cells were scraped and lysate was incubated at 4° C. under rotary agitation for 1 h. Lysate was centrifuged at 14,000×g for 10 min at 4° C. Supernatant was transferred to a new tube and an aliquot was taken as the input. […] For Western blots, 10 μg/mL Chicken Anti-FLAG (Aves labs ET-DY100) and IgY control (R&D Systems AB-101-C) antibodies were biotinylated (Thermo Fisher Scientific 90407) and added to the respective conditions. Lysates with antibodies were incubated at 4° C. under rotary agitation overnight. For each mL of lysate, 50 μL of Pierce Protein A/G Magnetic Beads (Mass spectrometry; Thermo Fisher Scientific 88803) or Pierce Streptavidin Magnetic Beads (Western blot; Thermo Fisher Scientific 88817) was washed twice with lysis buffer. Lysates with antibodies were added to the beads and incubated at 4° C. under rotary agitation for 4 h. Beads were washed with lysis buffer 3 times and resuspended in lysis buffer for storage.
(§2) Magnetic beads were resuspended in 100 mM Tris pH 7.8, reduced, alkylated and digested with trypsin at 37° ° C. overnight. This solution was subjected to solid phase extraction to concentrate the peptides and remove unwanted reagents followed by injection onto a Shimadzu HPLC with fraction collector. Eight fractions were collected and after concentration were injected on a Waters NanoAcquity HPLC equipped with a self-packed Aeris 3 μm C18 analytical column 0.075 mm by 20 cm, (Phenomenex). Peptides were eluted using standard reverse-phase gradients. The effluent from the column was analyzed using a Thermo Orbitrap Elite mass spectrometer (nanospray configuration) operated in a data dependent manner for 54 minutes. The resulting fragmentation spectra were correlated against the known database using Proteome Discover 1.4 (Thermo Fisher Scientific).

[2] = molecular target: T2, IPO13 (human, UniProt O94829 1-963)
T2 construct: also called NP_055467.3
T2 sequence (looked up): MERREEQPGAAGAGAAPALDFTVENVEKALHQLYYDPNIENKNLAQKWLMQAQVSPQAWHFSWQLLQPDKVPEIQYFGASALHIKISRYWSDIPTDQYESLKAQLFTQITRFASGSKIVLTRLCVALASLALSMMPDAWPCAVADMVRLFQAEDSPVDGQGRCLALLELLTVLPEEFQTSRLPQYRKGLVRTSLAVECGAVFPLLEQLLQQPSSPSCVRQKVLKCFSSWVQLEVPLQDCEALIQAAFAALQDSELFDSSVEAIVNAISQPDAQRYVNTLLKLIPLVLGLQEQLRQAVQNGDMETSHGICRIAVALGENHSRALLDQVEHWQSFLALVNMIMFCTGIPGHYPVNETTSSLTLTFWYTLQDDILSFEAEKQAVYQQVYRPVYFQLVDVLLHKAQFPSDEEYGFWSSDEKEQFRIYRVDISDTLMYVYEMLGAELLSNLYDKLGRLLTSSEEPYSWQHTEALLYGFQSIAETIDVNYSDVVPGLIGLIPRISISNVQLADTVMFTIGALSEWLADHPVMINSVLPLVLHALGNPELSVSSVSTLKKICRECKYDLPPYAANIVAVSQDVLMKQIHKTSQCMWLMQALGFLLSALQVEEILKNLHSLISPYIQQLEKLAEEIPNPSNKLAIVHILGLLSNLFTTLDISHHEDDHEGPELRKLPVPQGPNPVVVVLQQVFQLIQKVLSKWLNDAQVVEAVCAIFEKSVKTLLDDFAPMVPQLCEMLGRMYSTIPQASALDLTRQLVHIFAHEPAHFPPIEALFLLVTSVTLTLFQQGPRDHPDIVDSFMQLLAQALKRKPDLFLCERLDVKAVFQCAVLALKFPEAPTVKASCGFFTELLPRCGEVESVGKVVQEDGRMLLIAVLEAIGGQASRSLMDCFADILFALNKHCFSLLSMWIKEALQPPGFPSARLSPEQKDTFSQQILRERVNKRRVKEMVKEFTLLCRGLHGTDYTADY
Protocol: as §1, §2

[3] = molecular target: T3, CCT2 (human, UniProt P78371-2 1-488, limits assumed)
T3 construct: also called NP_001185771.1 (+1)
T3 sequence (looked up): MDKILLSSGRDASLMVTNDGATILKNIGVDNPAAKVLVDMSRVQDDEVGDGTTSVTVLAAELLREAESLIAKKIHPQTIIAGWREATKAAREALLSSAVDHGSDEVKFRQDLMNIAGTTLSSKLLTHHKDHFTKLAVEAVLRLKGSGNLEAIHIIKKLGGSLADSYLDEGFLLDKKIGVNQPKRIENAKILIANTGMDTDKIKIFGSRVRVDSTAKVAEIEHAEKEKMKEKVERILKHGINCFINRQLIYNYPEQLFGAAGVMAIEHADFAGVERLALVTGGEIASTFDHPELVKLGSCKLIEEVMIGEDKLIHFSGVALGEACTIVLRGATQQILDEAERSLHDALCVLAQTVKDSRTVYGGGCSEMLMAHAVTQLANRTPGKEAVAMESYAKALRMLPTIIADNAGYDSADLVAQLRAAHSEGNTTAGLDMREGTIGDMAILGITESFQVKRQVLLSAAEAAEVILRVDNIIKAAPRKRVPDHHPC
Protocol: as §1, §2

[4] = molecular target: T4, CTHRC1 (human, UniProt Q96CG8-3 1-229, limits assumed)
T4 construct: also called NP_001243028.1 (+1)
T4 sequence (Q96CG8 other isoform, or with tags, fused parts or gaps limits assumed): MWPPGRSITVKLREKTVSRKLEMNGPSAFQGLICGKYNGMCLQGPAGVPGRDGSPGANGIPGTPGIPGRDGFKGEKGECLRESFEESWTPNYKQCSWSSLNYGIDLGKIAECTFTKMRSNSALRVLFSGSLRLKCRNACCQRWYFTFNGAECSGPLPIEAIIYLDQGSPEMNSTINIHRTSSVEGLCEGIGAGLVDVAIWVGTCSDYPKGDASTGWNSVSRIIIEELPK
Protocol: as §1, §2

[5] = molecular target: T5, SLC27A4 (human, UniProt Q6P1M0 1-643)
T5 construct: also called NP_005085.2
T5 sequence (Q6P1M0 whole entry): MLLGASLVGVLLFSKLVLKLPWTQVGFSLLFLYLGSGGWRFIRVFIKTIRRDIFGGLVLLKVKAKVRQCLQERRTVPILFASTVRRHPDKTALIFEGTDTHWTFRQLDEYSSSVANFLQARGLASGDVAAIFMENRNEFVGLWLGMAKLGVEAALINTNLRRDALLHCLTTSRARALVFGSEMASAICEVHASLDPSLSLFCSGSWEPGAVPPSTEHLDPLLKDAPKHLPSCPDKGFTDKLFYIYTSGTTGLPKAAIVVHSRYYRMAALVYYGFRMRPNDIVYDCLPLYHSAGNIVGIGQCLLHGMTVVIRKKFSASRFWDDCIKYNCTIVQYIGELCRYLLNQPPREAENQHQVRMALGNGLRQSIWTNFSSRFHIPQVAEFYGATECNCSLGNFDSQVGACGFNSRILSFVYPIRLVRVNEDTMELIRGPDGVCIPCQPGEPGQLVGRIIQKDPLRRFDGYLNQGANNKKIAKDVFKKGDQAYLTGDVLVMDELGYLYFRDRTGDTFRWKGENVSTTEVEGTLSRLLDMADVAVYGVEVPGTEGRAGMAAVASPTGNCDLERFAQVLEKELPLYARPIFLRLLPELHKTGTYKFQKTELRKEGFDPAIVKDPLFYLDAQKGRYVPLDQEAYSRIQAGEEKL
Protocol: as §1, §2

Measured: co-IP mass spectrometry count

B1: N-terminal FLAG tagged B3GNT2 (enzyme, human, UniProt Q9NY97 1-397, looked up)
chain: MSVGRRRIKLLGILMMANVFIYFIMEVSKSSSQEKNGKGEVIIPKEKFWKISTPPEAYWNREQEKLNRQYNPILSMLTNQTGEAGRLSNISHLNYCEPDLRVTSVVTGFNNLPDRFKDFLLYLRCRNYSLLIDQPDKCAKKPFLLLAIKSLTPHFARRQAIRESWGQESNAGNQTVVRVFLLGQTPPEDNHPDLSDMLKFESEKHQDILMWNYRDTFFNLSLKEVLFLRWVSTSCPDTEFVFKGDDDVFVNTHHILNYLNSLSKTKAKDLFIGDVIHNAGPHRDKKLKYYIPEVVYSGLYPPYAGGGGFLYSGHLALRLYHITDQVHLYPIDDVYTGMCLQKLGLVPEKHKGFRTFDIEEKNKNNICSYVDLMLVHSRKPQEMIDIWSQLQSAHLKC
notes: Bait of the co-IP; pulled down with mouse anti-FLAG (Millipore Sigma F3165) from cell lysate; also called N-FLAG B3GNT2; N-term FLAG; not shown: N-terminal FLAG tag
0: [1] | [2] | [3] | [4] | [5]
